Several values for one entry are separate records, joined by “and”; a condition that tells them apart may be missing. Identical values can stand only once.

Holding throughout (test): SEC-MALLS
For experiment [1], the target named is MVV IN H12N (maedi-visna virus (KV1772 isolate)).
Experiment [2] addresses MVV IN QQ207GP (maedi-visna virus (KV1772 isolate)).
In experiment [3] the target is MVV IN QQQ211PGG (maedi-visna virus (KV1772 isolate)).
Experiment [4] has as its target MVV IN chimera QQQ211PFV304-314 (portion of the PFV IN CCD-CTD linker between MVV IN Gln210 and Gln214) (maedi-visna virus (KV1772 isolate) | prototype foamy virus (PFV)).
For experiment [5], the target named is maedi-visna virus (MVV) integrase, wild type, KV1772 isolate (maedi-visna virus (KV1772 isolate)).
For experiment [6], the target named is MVV IN E154Q. The conditions noted are these: IN injected at 2 mg/mL (bar); Superdex-200 column; parent: est. 170; read off a plot.
Experiment [7] addresses MVV IN F223A. The settings on record: IN injected at 2 mg/mL (bar); Superdex-200 column; parent: est. 170; read off a plot.
In experiment [8] the target is MVV IN H12N. The settings on record: IN injected at 2 mg/mL (bar); Superdex-200 column; parent: est. 170; read off a plot.
In experiment [9] the target is MVV IN I272E. The settings on record: IN injected at 2 mg/mL (bar); Superdex-200 column; parent: est. 170; read off a plot.
Experiment [10] has as its target MVV IN QQ207GP. The conditions noted are these: IN injected at 2 mg/mL (bar); Superdex-200 column; parent: est. 170; read off a plot.
Experiment [11] concerns the target MVV IN QQQ211PGG. The settings on record: IN injected at 2 mg/mL (bar); Superdex-200 column; parent: est. 170; read off a plot.
Experiment [12] deals with MVV IN R231E. The settings on record: IN injected at 2 mg/mL (bar); Superdex-200 column; parent: est. 170; read off a plot.
The target in experiment [13] is MVV IN V252A. The conditions noted are these: IN injected at 2 mg/mL (bar); Superdex-200 column; parent: est. 170; read off a plot.
Experiment [14] has as its target MVV IN V252D. The settings on record: IN injected at 2 mg/mL (bar); Superdex-200 column; parent: est. 170; read off a plot.
Experiment [15] addresses MVV IN V263E. The conditions noted are these: IN injected at 2 mg/mL (bar); Superdex-200 column; parent: est. 170; read off a plot.
Experiment [16] addresses MVV IN W245A. The conditions noted are these: IN injected at 2 mg/mL (bar); Superdex-200 column; parent: est. 170; read off a plot.
The target of experiment [17] is MVV IN W245E. The settings on record: IN injected at 2 mg/mL (bar); Superdex-200 column; parent: est. 170; read off a plot.
The target in experiment [18] is MVV IN W245L. The conditions noted are these: IN injected at 2 mg/mL (bar); Superdex-200 column; parent: est. 170; read off a plot.
Experiment [19] has as its target MVV IN Y225A. The settings on record: IN injected at 2 mg/mL (bar); Superdex-200 column; parent: est. 170; read off a plot.
The target in experiment [20] is MVV IN Y261A. The settings on record: IN injected at 2 mg/mL (bar); Superdex-200 column; parent: est. 170; read off a plot.
Experiment [21] concerns the target MVV IN Y261E. The conditions noted are these: IN injected at 2 mg/mL (bar); Superdex-200 column; parent: est. 170; read off a plot.

Sequence of maedi-visna virus (MVV) integrase, wild type, KV1772 isolate (P03370 1226-1506 limits assumed): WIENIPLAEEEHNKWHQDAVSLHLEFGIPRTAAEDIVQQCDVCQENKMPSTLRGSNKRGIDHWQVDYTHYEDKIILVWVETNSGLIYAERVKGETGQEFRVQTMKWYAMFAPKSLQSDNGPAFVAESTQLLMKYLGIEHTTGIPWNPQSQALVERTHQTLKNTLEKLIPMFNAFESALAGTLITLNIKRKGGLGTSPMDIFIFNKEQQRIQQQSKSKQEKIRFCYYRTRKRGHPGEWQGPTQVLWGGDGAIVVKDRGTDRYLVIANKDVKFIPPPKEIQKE

In turn, MVV IN H12N (enzyme) returned a stoichiometry N in experiment [1] of 2.

Substance MVV IN QQ207GP (enzyme) returned a stoichiometry N in [2] of 2.

In experiment [3], MVV IN QQQ211PGG (enzyme) had a stoichiometry N of 2.

As to “MVV IN chimera QQQ211PFV304-314 (portion of the PFV IN CCD-CTD linker between MVV IN Gln210 and Gln214) (enzyme)”, the stoichiometry N in [4] was 2.

With “maedi-visna virus (MVV) integrase, wild type, KV1772 isolate (enzyme)”, the stoichiometry N in [5] is 4 and 8.

Turning to “maedi-visna virus (MVV) integrase, wild type, KV1772 isolate E154Q”, the other: average molecular mass in experiment [6] was 180 kDa.

On to “maedi-visna virus (MVV) integrase, wild type, KV1772 isolate F223A”, for which the other: average molecular mass in experiment [7] came out at 120 kDa.

Regarding “maedi-visna virus (MVV) integrase, wild type, KV1772 isolate H12N”, in experiment [8], the other: average molecular mass was determined as 40 kDa.

On to “maedi-visna virus (MVV) integrase, wild type, KV1772 isolate I272E”, for which the other: average molecular mass in experiment [9] came out at 100 kDa.

As for “maedi-visna virus (MVV) integrase, wild type, KV1772 isolate Q207G; Q208P”, the other: average molecular mass in experiment [10] was 65 kDa.

In the case of “maedi-visna virus (MVV) integrase, wild type, KV1772 isolate Q211P; Q212G; Q213G”, the other: average molecular mass in [11] worked out at 65 kDa.

Consider “maedi-visna virus (MVV) integrase, wild type, KV1772 isolate R231E”, for which the other: average molecular mass in experiment [12] turned out to be 180 kDa.

As to “maedi-visna virus (MVV) integrase, wild type, KV1772 isolate V252A”, in experiment [13], the other: average molecular mass is 120 kDa.

Consider “maedi-visna virus (MVV) integrase, wild type, KV1772 isolate V252D”, for which the other: average molecular mass in [14] worked out at 80 kDa.

On to “maedi-visna virus (MVV) integrase, wild type, KV1772 isolate V263E”, for which the other: average molecular mass in experiment [15] turned out to be 110 kDa.

On to “maedi-visna virus (MVV) integrase, wild type, KV1772 isolate W245A”, for which the other: average molecular mass in [16] amounted to 120 kDa.

For “maedi-visna virus (MVV) integrase, wild type, KV1772 isolate W245E”, in [17], the other: average molecular mass amounted to 90 kDa.

For the substance “maedi-visna virus (MVV) integrase, wild type, KV1772 isolate W245L”, the other: average molecular mass in experiment [18] was 110 kDa.

With “maedi-visna virus (MVV) integrase, wild type, KV1772 isolate Y225A”, the other: average molecular mass in experiment [19] stood at 120 kDa.

Take “maedi-visna virus (MVV) integrase, wild type, KV1772 isolate Y261A”: the other: average molecular mass in experiment [20] turned out to be 100 kDa.

Consider “maedi-visna virus (MVV) integrase, wild type, KV1772 isolate Y261E”, for which, in experiment [21], the other: average molecular mass was 78 kDa.

Source of the values: PMC9065133.
